CN111909274A

Legend:
[1] = target: GPC3ΔGPI-FLAG重组蛋白 (GPC3 without its GPI region, C-terminal FLAG tag) (Homo sapiens (Human)) (UniProt P51654); test: ELISA on coated GPC3ΔGPI-FLAG, antibody pre-treated 2 h at 70℃, reference 4℃
[2] = target: GPC3ΔGPI-FLAG重组蛋白 (GPC3 without its GPI region, C-terminal FLAG tag) (Homo sapiens (Human)) (UniProt P51654); test: ELISA on coated GPC3ΔGPI-FLAG, antibody pre-treated 2 h at 90℃, reference 4℃
[3] = target: GPC3ΔGPI-FLAG重组蛋白 (GPC3 without its GPI region, C-terminal FLAG tag) (Homo sapiens (Human)) (UniProt P51654); test: ELISA on coated GPC3ΔGPI-FLAG, nanobody pre-treated 2 h at 70℃, reference 4℃
[4] = target: GPC3ΔGPI-FLAG重组蛋白 (GPC3 without its GPI region, C-terminal FLAG tag) (Homo sapiens (Human)) (UniProt P51654); test: ELISA on coated GPC3ΔGPI-FLAG, nanobody pre-treated 2 h at 90℃, reference 4℃
[5] = target: mCherry-GPC3 (mCherry fused to the N-terminus of GPC3, stably expressed on HEK293T cells) (UniProt P51654); test: immunofluorescence colocalisation on HEK293T cells expressing mCherry-GPC3, confocal microscopy

抗原结合能力下降 (fall of OD450 against the 4℃ sample) [1] | 抗原结合能力下降 (fall of OD450 against the 4℃ sample) [2] | 抗原结合能力下降 (fall of OD450 against the 4℃ sample) [3] | 抗原结合能力下降 (fall of OD450 against the 4℃ sample) [4] | 皮尔森相关系数 (Pearson correlation of mCherry and Alexa Fluor 488 signals) [5] | Molecule
42.9% | 58.3% |  |  |  | HN3-hFc融合抗体 (known GPC3 nanobody HN3 fused to human Fc, bought from Creative Biolabs) (Fc fusion)
 |  | 16.7% | 30.8% | 0.929 | G11纳米抗体 (GPC3 nanobody G11, His-tagged, from pET22b-G11-His) (VHH, not shown: small tags and cut ends) VHH: QVQLVESGGALVQPGGSLRLSCAASSSDFSRNALRWYRQAPGKEREWVCGINWTGSGYAYEDSVKGRFTCSRDDARNTVYLQLNSLKPEDTAVYYCAPLACSNCFPYKHYVYWGQGTQVTVSS
